Laboratory results as given in publication PMC5777258, “Phosphorylation of human enhancer filamentation 1 (HEF1) stimulates interaction with Polo-like kinase 1 leading to HEF1 localization to focal adhesions” (The Journal of Biological Chemistry, 2017).
Each block holds one molecule with its values, some of them ahead of it. Square brackets hold non-standard residues; d marks the D form. Ends that are not written are not given here. pT = C[C@@H](OP(=O)(O)O)[C@H](N)C(=O)O

Columns and labels:
[1] = biological target: HEF1, endogenous (UniProt Q14511); assay: GST pull-down (bead-conjugated GST-PBD) with anti-HEF1 immunoblot, bands quantified with ImageJ; conditions: HeLa total cell lysate, parent: 1.0
[2] = biological target: T1, Polo box domain of mouse Plk1 (residues 367-603), for crystallization (mouse, UniProt Q07832 367-603); assay: crystal structure; Plk1 PBD (10 mg/ml) with pThr-804 peptide added in a 1:3 molar ratio, incubated overnight; sitting-drop vapor diffusion at 295 K, 0.1 M sodium citrate pH 5.5, 15% PEG 6000; 2.9 Å; conditions: both partners purified
T1 construct: Polo box domain of mouse Plk1, Swiss Prot entry Q07832, residues 367-603; residues 371-593 are in the final model; TEV site ENLYFQS between the tag and the PBD, cleaved between Q and S: a serine is left before the PBD; also called Plk1 PBD; Plk1-PBD; source: E. coli BL21 (DE3) CodonPlus RIL, purified (Ni-NTA, TEV digestion, Superdex-75 gel filtration); not shown: His6, N-terminal, cleaved
T1 sequence (Q07832 367-603): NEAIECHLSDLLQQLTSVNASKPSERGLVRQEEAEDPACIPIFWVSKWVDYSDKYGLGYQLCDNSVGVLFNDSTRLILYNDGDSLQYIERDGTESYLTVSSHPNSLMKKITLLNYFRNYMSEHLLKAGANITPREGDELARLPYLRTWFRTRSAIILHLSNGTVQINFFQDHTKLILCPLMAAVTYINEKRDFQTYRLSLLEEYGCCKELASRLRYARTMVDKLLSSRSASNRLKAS

HEF1, endogenous, sequence (Q14511 whole entry, the tested form may be a part): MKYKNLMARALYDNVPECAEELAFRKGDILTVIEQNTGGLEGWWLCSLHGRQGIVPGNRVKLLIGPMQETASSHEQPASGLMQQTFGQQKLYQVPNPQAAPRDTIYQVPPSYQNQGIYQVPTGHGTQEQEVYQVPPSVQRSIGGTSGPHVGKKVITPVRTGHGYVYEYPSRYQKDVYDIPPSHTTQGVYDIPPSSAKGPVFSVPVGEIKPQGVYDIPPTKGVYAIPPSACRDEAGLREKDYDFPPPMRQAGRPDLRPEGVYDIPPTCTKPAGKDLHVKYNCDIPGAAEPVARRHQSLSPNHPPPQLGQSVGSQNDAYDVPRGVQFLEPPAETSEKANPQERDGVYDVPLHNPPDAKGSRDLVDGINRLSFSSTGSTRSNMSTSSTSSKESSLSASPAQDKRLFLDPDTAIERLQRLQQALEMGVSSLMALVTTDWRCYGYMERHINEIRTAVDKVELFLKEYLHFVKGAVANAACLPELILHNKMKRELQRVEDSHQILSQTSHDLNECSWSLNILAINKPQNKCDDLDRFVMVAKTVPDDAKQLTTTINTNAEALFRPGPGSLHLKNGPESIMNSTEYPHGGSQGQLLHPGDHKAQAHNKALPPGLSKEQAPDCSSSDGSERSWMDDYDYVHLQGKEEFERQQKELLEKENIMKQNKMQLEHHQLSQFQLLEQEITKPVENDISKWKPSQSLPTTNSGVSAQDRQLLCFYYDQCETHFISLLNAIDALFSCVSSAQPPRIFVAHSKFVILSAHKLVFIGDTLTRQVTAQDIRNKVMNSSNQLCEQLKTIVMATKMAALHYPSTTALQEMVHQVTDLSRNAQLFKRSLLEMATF

- ratio to parent ([1]; asynchronously growing (Async.)): 0.1
- ratio to parent ([1]; nocodazole (Noc)-treated (M phase)): 0.2
- ratio to parent ([1]; thymidine (Thy)-treated (S phase)): 0.1
Molecule: GST-Plk1 PBD WT (Polo box domain of Plk1) H538A; K540M

- binding result [2]: binds
B1: HEF1 pThr-804 peptide (799-LHYPSpTTALQE-809), free, for crystallization (peptide)
peptide: LHYPS[pT]TALQE
notes: HEF1 (NEDD9), human, aa 799-809; 800-HYPSpTTAL-807 is in the final model; source: synthetic peptide
